Laboratory results published in the supplement of paper PMC10567573.

B1: PSD2 (parent)
chain: LTHFSRRYCQCNPDDSTSEDGIHT

Variants of: B1
Test: protein stability index of a GFP-peptide fusion (GPS, HEK-293T) (PSI 1-6); higher = more stable
Conditions: c terminus: a fixed tail appended
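Also: lentivirally expressed fusions sorted by FACS into six bins by GFP to DsRed ratio, PSI derived from sequencing read proportions per bin multiplied by bin number.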

In order of falling protein stability index:
1. LTHFSDRYCQCNPDDSTSEDGIHT [R6D]  4.93
2. LTHFSERYCQCNPDDSTSEDGIHT [R6E]  4.83
3. LTHFSRDYCQCNPDDSTSEDGIHT [R7D]  4.69
4. LTHGSRRYCQCNPDDSTSEDGIHT [F4G]  4.57
5. LTHESRRYCQCNPDDSTSEDGIHT [F4E]  4.55
6. LTHHSRRYCQCNPDDSTSEDGIHT [F4H]  4.51
7. LTHNSRRYCQCNPDDSTSEDGIHT [F4N]  4.51
8. LTHFSREYCQCNPDDSTSEDGIHT [R7E]  4.43
9. LTHASRRYCQCNPDDSTSEDGIHT [F4A]  4.42
10. LEHFSRRYCQCNPDDSTSEDGIHT [T2E]  4.41
11. LTHFDRRYCQCNPDDSTSEDGIHT [S5D]  4.38
12. LTHFQRRYCQCNPDDSTSEDGIHT [S5Q]  4.35
13. LDHFSRRYCQCNPDDSTSEDGIHT [T2D]  4.29
14. LTHFSARYCQCNPDDSTSEDGIHT [R6A]  4.22
15. DTHFSRRYCQCNPDDSTSEDGIHT [L1D]  4.21
16. LTHFSGRYCQCNPDDSTSEDGIHT [R6G]  4.2
17. LTHPSRRYCQCNPDDSTSEDGIHT [F4P]  4.18
18. LTHFSNRYCQCNPDDSTSEDGIHT [R6N]  4.12
19. LTHTSRRYCQCNPDDSTSEDGIHT [F4T]  4.07
20. LTHFSSRYCQCNPDDSTSEDGIHT [R6S]  4.02
21. LTHFERRYCQCNPDDSTSEDGIHT [S5E]  3.97
22. PTHFSRRYCQCNPDDSTSEDGIHT [L1P]  3.96
23. LTHFSHRYCQCNPDDSTSEDGIHT [R6H]  3.93
24. LHHFSRRYCQCNPDDSTSEDGIHT [T2H]  3.9
25. LTHFSPRYCQCNPDDSTSEDGIHT [R6P]  3.9
26. CTHFSRRYCQCNPDDSTSEDGIHT [L1C]  3.89
27. LTHFGRRYCQCNPDDSTSEDGIHT [S5G]  3.78
28. LTHFSTRYCQCNPDDSTSEDGIHT [R6T]  3.78
29. VTHFSRRYCQCNPDDSTSEDGIHT [L1V]  3.77
30. NTHFSRRYCQCNPDDSTSEDGIHT [L1N]  3.75
31. TTHFSRRYCQCNPDDSTSEDGIHT [L1T]  3.75
32. LNHFSRRYCQCNPDDSTSEDGIHT [T2N]  3.74
33. LTHQSRRYCQCNPDDSTSEDGIHT [F4Q]  3.73
34. STHFSRRYCQCNPDDSTSEDGIHT [L1S]  3.7
35. LTHFNRRYCQCNPDDSTSEDGIHT [S5N]  3.69
36. LGHFSRRYCQCNPDDSTSEDGIHT [T2G]  3.67
37. HTHFSRRYCQCNPDDSTSEDGIHT [L1H]  3.66
38. LTHSSRRYCQCNPDDSTSEDGIHT [F4S]  3.61
39. LTHDSRRYCQCNPDDSTSEDGIHT [F4D]  3.57
40. ATHFSRRYCQCNPDDSTSEDGIHT [L1A]  3.56
41. QTHFSRRYCQCNPDDSTSEDGIHT [L1Q]  3.53
42. LTHLSRRYCQCNPDDSTSEDGIHT [F4L]  3.5
43. KTHFSRRYCQCNPDDSTSEDGIHT [L1K]  3.49
44. LTHMSRRYCQCNPDDSTSEDGIHT [F4M]  3.49
45. LTHFSQRYCQCNPDDSTSEDGIHT [R6Q]  3.49
46. LTHFARRYCQCNPDDSTSEDGIHT [S5A]  3.43
47. LTHFTRRYCQCNPDDSTSEDGIHT [S5T]  3.42
48. LTHFPRRYCQCNPDDSTSEDGIHT [S5P]  3.4
49. LTHCSRRYCQCNPDDSTSEDGIHT [F4C]  3.38
50. WTHFSRRYCQCNPDDSTSEDGIHT [L1W]  3.36
51. LTHFHRRYCQCNPDDSTSEDGIHT [S5H]  3.36
52. LTHRSRRYCQCNPDDSTSEDGIHT [F4R]  3.33
53. LTHWSRRYCQCNPDDSTSEDGIHT [F4W]  3.31
54. LTHFSRAYCQCNPDDSTSEDGIHT [R7A]  3.3
55. LTHFSLRYCQCNPDDSTSEDGIHT [R6L]  3.3
56. LTHFSMRYCQCNPDDSTSEDGIHT [R6M]  3.29
57. LPHFSRRYCQCNPDDSTSEDGIHT [T2P]  3.26
58. LTHFSRFYCQCNPDDSTSEDGIHT [R7F]  3.26
59. LSHFSRRYCQCNPDDSTSEDGIHT [T2S]  3.23
60. LTHFSKRYCQCNPDDSTSEDGIHT [R6K]  3.21
61. LAHFSRRYCQCNPDDSTSEDGIHT [T2A]  3.18
62. ETHFSRRYCQCNPDDSTSEDGIHT [L1E]  3.17
63. LTHISRRYCQCNPDDSTSEDGIHT [F4I]  3.17
64. LTHVSRRYCQCNPDDSTSEDGIHT [F4V]  3.16
65. LTHFSRCYCQCNPDDSTSEDGIHT [R7C]  3.15
66. LTHFSVRYCQCNPDDSTSEDGIHT [R6V]  3.08
67. LTHFLRRYCQCNPDDSTSEDGIHT [S5L]  3.06
68. LIHFSRRYCQCNPDDSTSEDGIHT [T2I]  3.01
69. LTHFSWRYCQCNPDDSTSEDGIHT [R6W]  2.95
70. LTHFMRRYCQCNPDDSTSEDGIHT [S5M]  2.89
71. LQHFSRRYCQCNPDDSTSEDGIHT [T2Q]  2.87
72. LMHFSRRYCQCNPDDSTSEDGIHT [T2M]  2.86
73. LTHYSRRYCQCNPDDSTSEDGIHT [F4Y]  2.85
74. LTHFSCRYCQCNPDDSTSEDGIHT [R6C]  2.8
75. LYHFSRRYCQCNPDDSTSEDGIHT [T2Y]  2.79
76. LTHFSIRYCQCNPDDSTSEDGIHT [R6I]  2.75
77. LTHFSYRYCQCNPDDSTSEDGIHT [R6Y]  2.74
78. FTHFSRRYCQCNPDDSTSEDGIHT [L1F]  2.72
79. LTHFCRRYCQCNPDDSTSEDGIHT [S5C]  2.71
80. LTHFVRRYCQCNPDDSTSEDGIHT [S5V]  2.67
81. LFHFSRRYCQCNPDDSTSEDGIHT [T2F]  2.63
82. LRHFSRRYCQCNPDDSTSEDGIHT [T2R]  2.63
83. LTHFKRRYCQCNPDDSTSEDGIHT [S5K]  2.57
84. LTHFRRRYCQCNPDDSTSEDGIHT [S5R]  2.53
85. LCHFSRRYCQCNPDDSTSEDGIHT [T2C]  2.51
86. LKHFSRRYCQCNPDDSTSEDGIHT [T2K]  2.47
87. LLHFSRRYCQCNPDDSTSEDGIHT [T2L]  2.41
88. LTHFIRRYCQCNPDDSTSEDGIHT [S5I]  2.34
89. LTHFSFRYCQCNPDDSTSEDGIHT [R6F]  2.33
90. LWHFSRRYCQCNPDDSTSEDGIHT [T2W]  2.28
91. LTHFYRRYCQCNPDDSTSEDGIHT [S5Y]  2.27
92. LVHFSRRYCQCNPDDSTSEDGIHT [T2V]  2.24
93. LTHFFRRYCQCNPDDSTSEDGIHT [S5F]  2.18
94. LTHFWRRYCQCNPDDSTSEDGIHT [S5W]  1.94
